Usually Kd stands for the free concentration of one partner at which half of the binding sites on the other are occupied at equilibrium, for simple one-to-one binding. Lower therefore signals tighter binding.

From patent US9926369B2, “Methods for treating hepatocellular cancer by administering an anti-Ang-2 antibody” (Regeneron Pharmaceuticals, Inc., priority 2009, dated 2018) come the findings set out here.

Several values for one entry are separate records, joined by “and”; a condition that tells them apart may be missing. Identical values can stand only once.

In one test the target is T1, hAng-2FD-mFc F-469-L (Homo sapiens, UniProt O15123, F469L).
T1 construct: made in house
The test is described as follows: Ang-2FD-mFc point mutant binding experiment (SPR), F-469-L. Particulars: F-469-L mutant captured; antibody/peptibody at 100 nM; 25° C. From the text: (§1) To further characterize binding between hAng2 and anti-hAng2 mAbs of the invention, seven variant hAng2-FD-mFc proteins were generated, each containing a single point mutation. Amino acids selected for mutation were based on the difference in sequence between hAng-2 and hAng-1 in the region that interacts with hTie-2 (FIG. 1). In particular, amino acids within the fibrinogen-like domain (FD) of Ang-2 which are believed to interact with Tie-2 based on crystal structure analysis, but which differ from the corresponding amino acid in Ang-1, were individually mutated to the corresponding hAng-1 residue. The results of this example indicate the amino acid residues of hAng-2 with which the Ang-2 preferential binding antibodies interact.
(§2) In this experiment, each of the seven hAng-2FD-mFc mutant proteins were captured (˜147-283 RU) on an anti-mouse-Fc surface created through direct chemical coupling to a BIACORE™ chip. Then each Ang-2 antibody (or peptibody, as the case may be) at 100 nM was injected over the captured mFc-tagged hAng-2FD protein surface at a flowrate of 50 μl/min for 180 sec, and the dissociation of variant hAng2-FD-mFc and antibody was monitored in real time for 20 min at 25° C.

Test [1] has as its system Tie-2 phosphorylation (Ang-2-mediated) in HUVECs. In words: Inhibition of Ang-2-mediated Tie-2 phosphorylation in FOXO1-adenovirus infected HUVECs. Format: cell-based, human. Particulars: antibody 0.5 μg/ml. The method, then: Further, the inventors have shown that infection of HUVECs with an adenovirus encoding FOXO1 results in expression and secretion of Ang-2, followed by activation of Tie-2 phosphorylation (Daly et al. 2006 PNAS 103:15491).
Anti-Ang-2 antibodies were tested for their ability to inhibit Tie-2 phosphorylation. Briefly, 7×10^5 HUVECs (Vec Technologies, Rensselaer, N.Y.) were plated in 6 cm cell culture dishes in 3.5 ml of MCDB131 Complete medium (Vec Technologies, Rensselaer, N.Y.). The following day, the cells were washed with Opti-MEM (Invitrogen Corp., Carlsbad, Calif.) and fed with 2 ml of Opti-MEM. […] Cells were then washed with MCDB131 and fed with 2 ml of MCDB131 containing anti-Ang-2 antibodies at a concentration of 0.5 μg/ml. At twenty hours post infection, cells were lysed and subjected to Tie-2 immunoprecipitation as described by Daly et al., Proc. Natl. Acad. Sci. USA 103:15491-15496 (2006). Immunoglobulin was collected on protein A/G beads (Santa Cruz Biotechnology, Santa Cruz, Calif.) for one hour. […] Signals were detected using HRP-conjugated secondary antibodies and ECL reagents (GE Healthcare, Piscataway, N.J.). X-Ray films were scanned and the phospho-Tie-2 and Tie-2 signals were quantified using ImageJ software. […]

The test system of test [2] is COLO 205 tumor vessel perfusion. In words: Tumor perfusion by contrast-enhanced micro-ultrasound, COLO 205 tumors. The class given is in vivo, mice. The conditions noted are these: treated for 24 hrs. The method, then: To determine whether the combination of H1H685P+VEGF Trap has a greater effect on tumor vessel function than the single agents, a micro-ultrasound (VisualSonics' Vevo 770 imaging system) was used to assess changes in tumor perfusion. COLO 205 tumors were grown to ˜125 mm^3 and mice were then treated for 24 hrs with H1H685P, VEGF Trap or the combination of both agents. Following treatment, tumor vessel perfusion was determined based on contrast-enhanced micro-ultrasound 2D image acquisition and analysis of a “wash-in” curve, which represents the amount of contrast agent entering the tumor. Average (mean+/−standard deviation) tumor perfusion was calculated for each group. Percent decrease was calculated from comparison to the Fc control group.

Another test addresses T2, hAng-2-WT (Homo sapiens, UniProt O15123).
T2 construct: wild-type human Ang-2 (hAng-2-WT)
T2 sequence (O15123 19-496): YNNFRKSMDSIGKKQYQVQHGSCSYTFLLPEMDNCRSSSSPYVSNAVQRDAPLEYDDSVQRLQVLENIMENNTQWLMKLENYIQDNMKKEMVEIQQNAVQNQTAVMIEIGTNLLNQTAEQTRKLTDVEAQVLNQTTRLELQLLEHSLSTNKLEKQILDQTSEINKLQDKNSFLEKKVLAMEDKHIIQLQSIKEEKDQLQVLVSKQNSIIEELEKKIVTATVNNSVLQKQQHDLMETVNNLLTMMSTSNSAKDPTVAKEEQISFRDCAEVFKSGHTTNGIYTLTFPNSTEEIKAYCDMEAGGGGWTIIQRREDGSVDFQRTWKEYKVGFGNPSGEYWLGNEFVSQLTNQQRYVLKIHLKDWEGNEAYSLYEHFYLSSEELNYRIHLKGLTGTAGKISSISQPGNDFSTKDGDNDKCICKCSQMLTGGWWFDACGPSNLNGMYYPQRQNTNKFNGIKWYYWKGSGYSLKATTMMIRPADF
In words: SPR binding to full-length wild-type human Ang-2 (preferential binding). The method, then: Binding experiments (plasmon resonance assays) were conducted to ascertain whether selected antibodies bound to both Ang-2 and Ang-1 or if they preferentially bound to Ang-2 only. Each selected antibody or control construct was captured at a flow rate of 40 μL/min for 1 minute on a goat anti-human IgG polyclonal antibody surface created through direct chemical coupling to a BIACORE™ chip to form a captured antibody surface. Full-length wild-type human Ang-1 or Ang-2 at a concentration of 25 nM or 0.78 nM were injected over the captured antibody surface at a flowrate of 60 μL/min for 3 minutes, and antigen-antibody dissociation was monitored in real time for 20 minutes at either 25° C. or 37° C.
Background: SPR reads the build-up and loss of mass on a sensor chip optically.

The target of another test is T3, hAng-2FD-mFc S-480-P (Homo sapiens, UniProt O15123, S480P).
T3 construct: made in house
In words: Ang-2FD-mFc point mutant binding experiment (SPR), S-480-P. The conditions noted are these: S-480-P mutant captured; antibody/peptibody at 100 nM; 25° C.
Source text: as §1, §2

The target of another test is hBA2 (Homo sapiens, UniProt O15123). In words: SPR binding to human bow-Ang-2 tetrameric construct (hBA2).
Sequence of hBA2 (O15123 with tags, fused parts or gaps): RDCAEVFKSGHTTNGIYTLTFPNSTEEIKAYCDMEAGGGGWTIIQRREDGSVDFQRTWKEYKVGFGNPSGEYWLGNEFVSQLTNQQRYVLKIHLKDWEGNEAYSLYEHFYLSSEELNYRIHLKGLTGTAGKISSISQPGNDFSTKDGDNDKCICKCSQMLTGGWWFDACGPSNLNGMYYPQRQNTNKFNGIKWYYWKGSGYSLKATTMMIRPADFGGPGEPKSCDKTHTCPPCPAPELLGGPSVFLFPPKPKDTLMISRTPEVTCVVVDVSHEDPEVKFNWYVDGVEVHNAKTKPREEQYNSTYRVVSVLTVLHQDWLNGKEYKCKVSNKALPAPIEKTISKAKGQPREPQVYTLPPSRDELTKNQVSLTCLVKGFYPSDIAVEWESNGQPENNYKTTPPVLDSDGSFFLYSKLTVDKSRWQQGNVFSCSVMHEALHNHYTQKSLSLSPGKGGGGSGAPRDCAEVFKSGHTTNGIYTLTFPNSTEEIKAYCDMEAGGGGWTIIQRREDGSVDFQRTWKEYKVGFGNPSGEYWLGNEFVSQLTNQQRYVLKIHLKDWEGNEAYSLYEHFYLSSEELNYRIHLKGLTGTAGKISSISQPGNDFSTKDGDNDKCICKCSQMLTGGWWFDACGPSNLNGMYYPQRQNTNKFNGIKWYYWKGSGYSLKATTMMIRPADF

T1 sequence (O15123 with tags, fused parts or gaps F469L): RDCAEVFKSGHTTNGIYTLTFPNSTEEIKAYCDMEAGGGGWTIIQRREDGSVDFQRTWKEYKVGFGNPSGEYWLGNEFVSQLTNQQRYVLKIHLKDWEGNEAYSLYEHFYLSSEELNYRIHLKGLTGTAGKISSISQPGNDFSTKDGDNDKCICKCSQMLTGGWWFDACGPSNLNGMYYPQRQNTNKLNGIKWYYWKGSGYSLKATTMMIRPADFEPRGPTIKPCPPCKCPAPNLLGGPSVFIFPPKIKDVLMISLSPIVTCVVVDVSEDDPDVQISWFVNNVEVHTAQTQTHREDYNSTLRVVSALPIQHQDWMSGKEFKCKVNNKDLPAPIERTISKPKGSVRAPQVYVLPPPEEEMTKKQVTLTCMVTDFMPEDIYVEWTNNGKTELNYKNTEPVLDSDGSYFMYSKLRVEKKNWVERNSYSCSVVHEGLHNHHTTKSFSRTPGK
T3 sequence (O15123 with tags, fused parts or gaps S480P): as the sequence (O15123 with tags, fused parts or gaps F469L) above, with L188F, S199P counted along it

Take “H1H685P: human anti-Ang-2 antibody, HCVR/LCVR SEQ ID NOs 18/20; also referred to as mAb1 [Antibody H1H685P]”: the Kd with hAng-2FD-mFc F-469-L was found to be 13.8 nM; in the test with hAng-2FD-mFc S-480-P it was 0.205 nM; in the test with hBA2 it was 0.0119 nM. Moreover, the RU with hAng-2FD-mFc F-469-L is 101.16 RU; with hAng-2FD-mFc S-480-P it was 161.13 RU. Also, the “Inhibition of Tie-2 phosphorylation” value in test [1] was “+++ (75-100%)”. In addition, the “Inhibition of Tie-2 phosphorylation (in words)” value in test [1] was “Especially robust inhibition”. Also, in test [2] (mean ± SD), the “Relative Tumor Perfusion” value is reported as 6.32 ± 2.81. In test [2] (vs Fc control), the “% Decrease in Tumor Perfusion” value turned out to be 22%. Moreover, the “kd, binding to hAng-2-WT” value in the test with hAng-2-WT (25° C.) is 1.6e-05 s⁻¹ and 8.5e-06 s⁻¹; with hAng-2-WT (37° C.), 3.76e-05 s⁻¹ and 2.16e-05 s⁻¹.
